Test results from IntAct's records for PubMed 26694203.

B1: Mesoderm posterior protein 1 (Homo sapiens), Q9BRJ9 (parent)
chain: MAQPLCPPLSESWMLSAAWGPTRRPPPSDKDCGRSLVSSPDSWGSTPADSPVASPARPGTLRDPRAPSVGRRGARSSRLGSGQRQSASEREKLRMRTLARALHELRRFLPPSVAPAGQSLTKIETLRLAIRYIGHLSAVLGLSEESLQRRCRQRGDAGSPRGCPLCPDDCPAQMQTRTQAEGQGQGRGLGLVSAVRAGASWGSPPACPGARAAPEPRDPPALFAEAACPEGQAMEPSPPSPLLPGDVLALLETWMPLSPLEWLPEEPK

Variants of: B1
Conditions: with tfe2_human TCF3, P15923
Chain of tfe2_human TCF3, P15923 (P15923 whole entry): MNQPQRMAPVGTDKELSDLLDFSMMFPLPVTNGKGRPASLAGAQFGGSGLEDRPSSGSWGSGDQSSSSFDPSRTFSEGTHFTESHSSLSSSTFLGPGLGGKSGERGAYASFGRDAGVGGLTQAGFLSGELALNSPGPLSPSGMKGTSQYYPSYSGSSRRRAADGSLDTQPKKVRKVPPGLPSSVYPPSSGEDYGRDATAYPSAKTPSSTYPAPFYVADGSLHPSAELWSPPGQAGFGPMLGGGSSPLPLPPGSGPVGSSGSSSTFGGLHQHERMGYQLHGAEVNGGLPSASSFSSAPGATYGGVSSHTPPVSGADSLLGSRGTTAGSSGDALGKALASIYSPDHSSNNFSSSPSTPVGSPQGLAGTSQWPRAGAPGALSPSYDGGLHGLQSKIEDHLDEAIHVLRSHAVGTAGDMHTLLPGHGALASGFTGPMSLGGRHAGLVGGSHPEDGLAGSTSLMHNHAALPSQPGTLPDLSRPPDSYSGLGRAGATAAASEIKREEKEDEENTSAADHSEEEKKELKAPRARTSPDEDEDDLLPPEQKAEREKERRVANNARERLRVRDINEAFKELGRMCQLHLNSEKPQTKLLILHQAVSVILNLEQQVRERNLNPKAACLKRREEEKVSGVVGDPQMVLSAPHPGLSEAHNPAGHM

Variant | effect of a mutation on the interaction
E104K | decreasing interaction strength
G70D | with no effect

The remaining lines, values ahead:

effect of a mutation on the interaction | Variant
decreasing interaction strength | D168G
decreasing interaction strength | L120P
with no effect | K268N
